According to patent publication US10357573B2, “Block copolymer conjugate of physiologically active substance” (Nippon Kayaku Kabushiki Kaisha, priority 2015, dated 2019):
Read-outs that look alike come from different tables or passages of the source.

Experiments:
[1] = Volume average particle diameter by dynamic light scattering; assay type: physicochemical; conditions: device A, 1 mg/mL
Experimental: Measurement of the volume average particle diameters of the physiologically active substance-conjugated block copolymers of Examples and Comparative Examples was carried out using a ZetaPotential/Particlesizer NICOMP 380 ZLS (device A; temperature: 25° C.) manufactured by Particle Sizing Systems, LLC, or a particle size zeta potential analyzer, ZETASIZER NANO ZS (device B; measurement temperature: 25° C., analysis model: General Purpose (normal resolution), material RI: 1.59) manufactured by Malvern Instruments, Ltd. Regarding the volume average particle diameter measurement sample, a solution obtained by adding ultrapure water to a physiologically active substance-conjugated block copolymer to obtain a concentration of 1 mg/mL or 5 mg/mL, dissolving the block copolymer by irradiating the mixture with ultrasonic waves for 10 minutes under ice cooling, and then filtering the solution through a 0.2-μm membrane filter, was used.

[2] = Light scattering intensity of 1 mg/mL aqueous solution, relative to toluene; assay type: physicochemical; conditions: for relative ratio between the light scattering intensity and the light scattering intensity of toluene: 1 mg/mL aqueous solution vs standard toluene solution under the same conditions; for light scattering intensity of a 1 mg/mL aqueous solution: 1 mg/mL in ultrapure water, 25° C., wavelength 632.8 nm
Experimental: Regarding the measurement sample for the scattering intensity measurement, a solution obtained by adding ultrapure water to a physiologically active substance-conjugated block copolymer to obtain a concentration of 1 mg/mL, dissolving the block copolymer by irradiating the mixture with ultrasonic waves for 10 minutes under ice cooling, and then filtering the solution through a 0.2-μm membrane filter, was used.
Toluene (manufactured by Junsei Chemical Co., Ltd., special grade) that was used for the measurement of the light scattering intensity, was used after being filtered three times through a 0.2-μm membrane filter.

[3] = test system: human stomach cancer SC-4-JCK; assay: Test Example A-5 antitumor effect in human stomach cancer-transplanted nude mouse; assay type: in vivo; conditions: 12 mg/kg as converted to 7-ethyl-10-hydroxycamptothecin, iv once; for Relative tumor volume: 14th day after administration, day of administration = 1.0, average ± SD
Experimental: A tumor mass of human stomach cancer SC-4-JCK that had been subcutaneously subcultured in a nude mouse was cut into a block having a size of about 3 mm on each side, and this block was subcutaneously transplanted on the dorsal side of a nude mouse using a trocar.
A relative tumor volume was determined from the tumor volumes obtained on the day of administration and on the 14th day after the administration, and this was employed as an index for the antitumor effect. The tumor volume was determined by measuring the major axis (L: mm) and the minor axis (W: mm) of the tumor, and calculating the volume by the calculation formula: (L×W^2)/2.

[4] = Test Example A-4 hematotoxicity test in non-tumor bearing rat; assay type: in vivo, Sprague-Dawley rats; conditions: 40 mg/kg as converted to 7-ethyl-10-hydroxycamptothecin; for prolonged hematotoxicity: 7 days after administration; for Number of blood reticulocytes: iv once, 7th day after administration
Source text: The resultant solutions were used as analysis samples.

[5] = Test Example A-3 hepatotoxicity test in non-tumor bearing mouse; assay type: in vivo, Crl:CD1(ICR)(ICR(IGS)) mice; parameters: ALT: unit not given here; conditions: for ALT: iv once, blood plasma 3 days after administration; for hepatotoxicity: maximum tolerated dose iv once, 3 days after administration
Experimental: The blood plasma obtained by centrifuging the blood thus collected (4° C., 1600×g, 10 minutes) was used as a measurement sample, and a blood chemical examination of the measurement sample was performed using an automatic biochemical analysis apparatus Model 7180 (Hitachi High Technologies Corp.).

human lung cancer H460 = assay: Test Example C-4 antitumor effect test in human lung cancer-transplanted nude mouse; assay type: in vivo; conditions: for Relative tumor volume: iv once, 15th day after administration, day of administration = 1.0, average ± SD; for antitumor effect: compared to cabazitaxel 30 mg/kg
Experimental: A tumor mass of human lung cancer H460 that had been subcutaneously subcultured in a nude mouse was cut into a block having a size of about 3 mm on each side, and this block was subcutaneously transplanted on the dorsal side of a nude mouse using a trocar.
(§1) A relative tumor volume was determined from the tumor volumes obtained on the day of administration and on the 15th day after the administration, and this was employed as an index for the antitumor effect. The tumor volume was determined by measuring the major axis (L: mm) and the minor axis (W: mm) of the tumor, and calculating the volume by the calculation formula: (L×W^2)/2.

[6] = test system: human pancreatic cancer BxPC3; assay: Test Example C-3 antitumor effect test in human pancreatic cancer-transplanted nude mouse; assay type: in vivo; conditions: for Relative tumor volume: iv once, 8th day after administration, day of administration = 1.0, average ± SD; for antitumor effect: compared to cabazitaxel 30 mg/kg
Experimental: A tumor mass of human pancreatic cancer BxPC3 that had been subcutaneously subcultured in a nude mouse was cut into a block having a size of about 3 mm on each side, and this block was subcutaneously transplanted on the dorsal side of a nude mouse using a trocar.
as §1, with “8th” for “15th”

[7] = Maximum tolerated dose / maximum non-lethal dose, single intravenous administration; assay type: in vivo, mice; conditions: iv once through the caudal vein; for maximum tolerated dose: as converted to cabazitaxel
[8] = for Number of blood reticulocytes: 60 mg/kg as converted to cabazitaxel, iv once, 5th day after administration
Experimental: As a control group, a 5% glucose injection solution was intravenously administered once through the caudal vein.
Polysorbate 80 was added thereto in an amount equal to the amount of anhydrous ethanol, and the mixture was sufficiently mixed. This was used as a preparation stock solution.
After 3, 5, 7, 11, and 14 days from the day of administration of the various compounds, blood was collected through the subclavian vein without anesthesia using a 1-mL disposable syringe with a 26 G needle. About 3 μL of an EDTA-2K solution had been added in advance to the syringe, and this solution was sufficiently mixed with the blood thus collected. The resultant solutions were used as analysis samples. The blood samples were subjected to a blood cell analysis using a blood cell analysis apparatus XT-2000iV (Sysmex Corp.).

[9] = dose 100 mg/kg as converted to 7-ethyl-10-hydroxycamptothecin (maximum tolerated dose)
[10] = 60 mg/kg as converted to cabazitaxel

7-ethyl-10-Hydroxycamptothecin (EHC) Conjugate of polyethylene glycol (5 Kilodaltons)-polyglutamic Acid (10.0 Polymer) Block Copolymer [Example A-3]
volume average particle diameter [1]: 8 nm | relative ratio between the light scattering intensity and the light scattering intensity of toluene [2]: 3.0 times | light scattering intensity of a 1 mg/mL aqueous solution [2]: 16,750 cps | antitumor effect [3]: stronger antitumor effect compared to the Comparative Examples | Relative tumor volume [3]: 1.574 ± 0.388 | prolonged hematotoxicity [4]: prolonged hematotoxicity was not recognized | Number of blood reticulocytes [4]: 54.29 ± 8.49 ×10^4/μL

7-ethyl-10-hydroxycamptothecin (EHC) Conjugate of polyethylene glycol (2 Kilodaltons)-polyglutamic Acid (7.6 Polymer) Block Copolymer [Example A-1]
volume average particle diameter [1]: 6 nm | ALT [5, 9]: 64 ± 25 | hepatotoxicity [5]: hepatotoxicity was negligible | relative ratio between the light scattering intensity and the light scattering intensity of toluene [2]: 3.1 times | light scattering intensity of a 1 mg/mL aqueous solution [2]: 17,070 cps | Relative tumor volume [3]: 2.466 ± 0.398 | prolonged hematotoxicity [4]: prolonged hematotoxicity was not recognized | Number of blood reticulocytes [4]: 64.18 ± 4.43 ×10^4/μL

7-ethyl-10-hydroxycamptothecin (EHC) Conjugate of polyethylene glycol (2 Kilodaltons)-polyglutamic Acid (10.0 Polymer) Block Copolymer [Example A-2]
volume average particle diameter [1]: 10 nm | ALT [5, 9]: 55 ± 54 | hepatotoxicity [5]: hepatotoxicity was negligible | relative ratio between the light scattering intensity and the light scattering intensity of toluene [2]: 4.9 times | light scattering intensity of a 1 mg/mL aqueous solution [2]: 27,149 cps | Relative tumor volume [3]: 2.593 ± 0.482

7-ethyl-10-hydroxycamptothecin (EHC) Conjugate of polyethylene glycol (3 Kilodaltons)-polyglutamic Acid (6.6 Polymer) Block Copolymer [Comparative Example A-2, reference compound]
ALT [5, 9]: 528 ± 681 | hepatotoxicity [5]: occurrence of hepatotoxicity was acknowledged | relative ratio between the light scattering intensity and the light scattering intensity of toluene [2]: 1.80 times | light scattering intensity of a 1 mg/mL aqueous solution [2]: 9,964 cps | self-association in aqueous solution [2]: non-associating | Relative tumor volume [3]: 2.426 ± 1.122 | Number of blood reticulocytes [4]: 66.17 ± 7.74 ×10^4/μL

7-ethyl-10-hydroxycamptothecin (EHC) Conjugate of polyethylene glycol (12 Kilodaltons)-polyglutamic Acid (7.5 Polymer) Block Copolymer [Comparative Example A-3]
ALT ([5]; dose 50 mg/kg as converted to 7-ethyl-10-hydroxycamptothecin (maximum tolerated dose)): 114 ± 68 | hepatotoxicity [5]: hepatotoxicity was clearly manifested | relative ratio between the light scattering intensity and the light scattering intensity of toluene [2]: 1.0 times | light scattering intensity of a 1 mg/mL aqueous solution [2]: 5,625 cps | self-association in aqueous solution [2]: non-associating

7-ethyl-10-hydroxycamptothecin (EHC) Conjugate of polyethylene glycol (12 Kilodaltons)-polyglutamic Acid (25 Polymer) Block Copolymer [Comparative Example A-1, reference compound]
volume average particle diameter [1]: 20 nm | relative ratio between the light scattering intensity and the light scattering intensity of toluene [2]: 7.5 times | light scattering intensity of a 1 mg/mL aqueous solution [2]: 41,321 cps | Relative tumor volume [3]: 2.232 ± 0.534 | prolonged hematotoxicity [4]: prolonged hematotoxicity was recognized | Number of blood reticulocytes [4]: 20.26 ± 11.50 ×10^4/μL

CO[C@H]1C(=O)[C@]2(C)[C@@H](OC)C[C@H]3OC[C@@]3(OC(C)=O)[C@H]2[C@H](OC(=O)c2ccccc2)[C@]2(O)C[C@H](OC(=O)[C@H](O)[C@@H](NC(=O)OC(C)(C)C)c3ccccc3)C(C)=C1C2(C)C [Cabazitaxel, reference compound]
Relative tumor volume (human lung cancer H460; 30 mg/kg): 1.476 ± 0.509 | Relative tumor volume ([6]; 30 mg/kg): 1.19 ± 0.21 | maximum non-lethal dose [7]: 30 mg/kg | prolonged hematotoxicity ([8]; mouse, in vivo): prolonged hematotoxicity was not recognized

Cabazitaxel (CBZ) Conjugate of polyethylene glycol (5 Kilodaltons)-α-polyaspartic Acid (20.0 Polymer) Block Copolymer [Example C-2]
antitumor effect (human lung cancer H460; [10]): stronger tumor proliferation suppressing action | Relative tumor volume (human lung cancer H460; [10]): 0.800 ± 0.371 | antitumor effect [6, 10]: stronger tumor proliferation suppressing action | Relative tumor volume [6, 10]: 0.81 ± 0.17 | maximum tolerated dose [7]: 60 mg/kg

Cabazitaxel (CBZ) Conjugate of polyethylene glycol (12 Kilodaltons)-α,β-polyaspartic Acid (23.8 Polymer) Block Copolymer [Comparative Example C-1, reference compound]
antitumor effect (human lung cancer H460; [10]): stronger tumor proliferation suppressing action | Relative tumor volume (human lung cancer H460; [10]): 0.484 ± 0.083 | antitumor effect [6, 10]: stronger tumor proliferation suppressing action | Relative tumor volume [6, 10]: 0.78 ± 0.09 | maximum tolerated dose [7]: 60 mg/kg | Number of blood reticulocytes [8]: 18.49 ± 13.10 ×10^4/μL | prolonged hematotoxicity ([8]; 5 days after administration): prolonged hematotoxicity was recognized

Cabazitaxel (CBZ) and n-butylamine Conjugate of polyethylene glycol (2 Kilodaltons)-α,β-polyaspartic Acid (12.5 Polymer) Block Copolymer [Example C-1]
antitumor effect (human lung cancer H460; [10]): stronger tumor proliferation suppressing action | Relative tumor volume (human lung cancer H460; [10]): 0.560 ± 0.201 | antitumor effect [6, 10]: stronger tumor proliferation suppressing action | Relative tumor volume [6, 10]: 0.83 ± 0.10 | maximum tolerated dose [7]: 60 mg/kg | Number of blood reticulocytes [8]: 52.69 ± 13.95 ×10^4/μL | prolonged hematotoxicity ([8]; 5 days after administration): prolonged hematotoxicity was not recognized
